Source: US20250051449A1 (SURFACE ONCOLOGY, published 2025)

T1: human CD112R expressed on Jurkat cells (human, UniProt Q6DKI7 1-326)
T1 construct: whole, on cells; Used for both Jurkat-CD112R OE cells and wild type Jurkat cells; which cells is said under assay; also called PVRIG; Jurkat-CD112R OE
T1 sequence (looked up): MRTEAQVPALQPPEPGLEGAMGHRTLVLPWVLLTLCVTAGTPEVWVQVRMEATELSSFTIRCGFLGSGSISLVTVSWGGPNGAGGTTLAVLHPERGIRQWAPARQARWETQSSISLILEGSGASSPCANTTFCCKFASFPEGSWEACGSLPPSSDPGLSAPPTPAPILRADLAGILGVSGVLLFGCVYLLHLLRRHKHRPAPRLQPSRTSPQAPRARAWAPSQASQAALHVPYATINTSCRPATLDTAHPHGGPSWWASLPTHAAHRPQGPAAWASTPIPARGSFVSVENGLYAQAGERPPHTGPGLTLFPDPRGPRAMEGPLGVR

T2: CD112R-hIgG4 fusion protein (human, UniProt Q6DKI7 41-171, limits assumed)
T2 construct: also called human CD112R-hIgG4; not shown: human IgG4 portion (hIgG4)
T2 sequence (looked up): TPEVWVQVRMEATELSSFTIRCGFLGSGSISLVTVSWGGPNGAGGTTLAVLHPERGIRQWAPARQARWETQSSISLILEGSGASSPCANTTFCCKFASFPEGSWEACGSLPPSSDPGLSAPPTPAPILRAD


Experiments:
[1] = molecular target: T1, human CD112R expressed on Jurkat cells; experiment: flow cytometry, wild type Jurkat cells, 0.63 ug/mL antibody
Protocol: (§1) The ability of anti-CD112R antibodies to bind to CD112R expressed on cells was evaluated. 1×10⁵ Jurkat cells (acute T cell leukemia cell line, ATCC #TIB-152) that were either wild type or engineered to over-express human CD112R (Jurkat-CD112R OE) were added to each well of a 96-well V bottom plate and stained with either anti-CD112R antibodies or an IgG1 isotype control (0.63 μg/mL) for 1 hour at 4° C. Cells were washed twice with PBS+2% FCS and resuspended with Alexa Fluor® 647 anti-human IgG Fc antibody (Biolegend, Cat #409320) diluted 1:100 in PBS+2% FCS and incubated at 4° C. for 30 minutes. Cells were subsequently washed twice and resuspended in PBS+2% FCS. Cellular data was acquired using a LSRFortessa X-20 (BD Biosciences) and analyzed with FlowJo software (Tree Star).

[2] = molecular target: T1, human CD112R expressed on Jurkat cells; experiment: flow cytometry competition on Jurkat-CD112R OE cells; competitor biotinylated his-tagged human CD112
Protocol: The ability of anti-CD112R antibodies to block CD112 binding to CD112R expressing cells was evaluated. 1×10⁵ Jurkat cells (acute T cell leukemia cell line, ATCC #TIB-152) that were engineered to over-express human CD112R (Jurkat-CD112R OE) were added to each well of a 96-well V bottom plate and stained with serial dilutions of either anti-CD112R antibodies or an IgG1 isotype control (highest concentration, 10 μg/mL) for 1 hour at 4° C. Cells were washed twice with PBS+2% FCS and resuspended with biotinylated his-tagged human CD112 (3 μg/mL) (BPS Bioscience, #71234) and PE Streptavidin (5 μg/mL) (Biolegend, #405204) in PBS+2% FCS and incubated at 2 hours at 4° C. Cells were subsequently washed twice and resuspended in PBS+2% FCS. Cellular data was acquired using a LSRFortessa X-20 (BD Biosciences) and analyzed with FlowJo software (Tree Star).
Results are depicted in FIG. 2A and Table 2. […] Percent inhibition was calculated as [100−((test sample MFI/Max MFI)*100%)]

[3] = molecular target: T2, CD112R-hIgG4 fusion protein; experiment: blocking ELISA: coated CD112R-hIgG4, antibody, then biotinylated CD112 Fc
Protocol: The ability of anti-CD112R antibodies to block human CD112R was also evaluated by ELISA. Briefly, 96 well Nunc Maxisorp plates were coated with 1 μg/mL of a CD112R-hIgG4 fusion protein in PBS overnight at 4° C. […] After blocking, plates were washed 6× with PBST. Next, 100 μl of anti-CD112R antibodies in PBS+1% BSA was added at a final starting concentration of 10 μg/mL, with 4-fold serial dilutions. Plates were incubated at room temperature for 1.5 hours. Next plates were washed 6× with PBST and then incubated with 1 μg/ml CD112 Fc protein (R&D Systems, Cat #9317-N2-050) that was biotinylated with a sulfo-NHS biotinylation kit (Thermo Fisher, Cat #21925) in 100 μl of PBS+1% BSA for 1 hour at room temperature. Plates were then washed 6× with PBST and subsequently incubated with streptavidin-HRP (Biolegend, Cat #405210) diluted in PBS+1% BSA according to the manufacturer recommendation for 1 hour at room temperature. Following this incubation, plates were then washed 6× with PBST and developed with TMB substrate (Life Technologies, Cat #002023). The reaction was stopped with an equal volume of stop solution (Life Technologies, Cat #SS04). Absorbance at 450 nm (O.D. 450) was measured on a SpectraMax plate reader.
Results are depicted in FIG. 2B and Table 2. […] Percent inhibition was calculated as [100−((test sample O.D. 450/Max 0.D. 450)*100%)] Max O.D. 450 was defined as absorbance at 450 nm in the absence of antibody.

[4] = molecular target: T1, human CD112R expressed on Jurkat cells; experiment: flow cytometry, Jurkat cells over-expressing human CD112R, 0.63 ug/mL antibody
Protocol: as §1
Results are depicted in FIG. 1. Quantitation of antibody binding to Jurkat-CD112R OE cells was assessed by the geometric mean fluorescent intensity (gMFI) of the Alexa Fluor® 647 signal.

gMFI (fold increase over isotype) [1] | CD112 blocking max inhibition (%) [2] [%] | IC50 [2] [ng/mL] | CD112 blocking max inhibition ELISA (%) [3] [%] | gMFI (fold increase over isotype) [4] | Binder
4.8 fold increase over isotype | 97.7 | 0.81 | 96.8 | 46.9 fold increase over isotype | Antibody 44 (antibody, V domains shown, Purified as IgG; compared with an IgG1 isotype control and detected with anti-human IgG Fc; also called antibody clone number 44; clone 44) VH: QVQLVQSGAEVKKPGSSVKVSCKASGGTFDNYYISWVRQAPGQGLEWMGGIFPIFGTANYAQKFQGRVTITADESTSTAYMELSSLRSEDTAVYYCAREVGHYSGSPYYMDVWGKGTTVTVSS VL: DIQMTQSPSTLSASVGDRVTITCRASQSINSWLAWYQQKPGKAPKLLISDASSLESGVPSRFSGSGSGTEFTLTISSLQPDDFATYYCQQVGPYLTFGGGTKVEIK
3.8 fold increase over isotype | 95.5 | 0.19 | 97.2 | 51.7 fold increase over isotype | Antibody 38 (antibody, V domains shown, Purified as IgG; compared with an IgG1 isotype control and detected with anti-human IgG Fc; also called antibody clone number 38; clone 38) VH: EVQLLESGGGLVQPGGSLRLSCAASGFTFSGHLMSWVRQAPGKGLEWVSAISGSAGETYYADSVKGRFTISRDNSKNTLYLQMNSLRAEDTAVYYCARDAYYDDWSGWADWYFDLWGRGTLVTVSS VL: EIVLTQSPATLSLSPGERATLSCRASQSVSRYLAWYQQKPGQAPRLLIYDASNRATGIPARFSGSGSGTDFTLTISSLEPEDFAVYYCQQVSLLPPTFGGGTKVEIK
4 fold increase over isotype | 97.9 | 0.51 | 97 | 53.2 fold increase over isotype | Antibody 15 (antibody, V domains shown, Purified as IgG; compared with an IgG1 isotype control and detected with anti-human IgG Fc; also called antibody clone number 15; clone 15) VH: EVQLVESGGGLVQPGRSLRLSCTASGFTFGDVAMSWFRQAPGKGLEWVGYIGSKAYGGETEYTASVKGRFTISRDGSKSIAYLQMNSLKTEDTAVYYCARAGHSYGSIASNWFDPWGQGTLVTVSS VL: DIQMTQSPSSLSASVGDRVTITCRASQSISSYLNWYQQKPGKAPKLLIYGASSLQSGVPSRFSGSGSGTDFTLTISSLQPEDFATYYCQQGFYTPWTFGGGTKVEIK
4.6 fold increase over isotype | 96.8 | 0.69 | 96.3 | 55.7 fold increase over isotype | Antibody 10 (antibody, V domains shown, Purified as IgG; compared with an IgG1 isotype control and detected with anti-human IgG Fc; also called antibody clone number 10; clone 10) VH: EVQLVESGGGLVQPGRSLRLSCAASGFTFDDYAVHWVRQAPGKGLEWVSGISWSSGLIGYADSVKGRFTISRDNAKNSLYLQMNSLRAEDTAVYYCAKGPPTYQDYFDLWGRGTLVTVSS VL: EIVLTQSPATLSLSPGERATLSCRASQSVSRYLAWYQQKPGQAPRLLIYDASNRATGIPARFSGSGSGTDFTLTISSLEPEDFAVYYCQQVSFFPPITFGGGTKVEIK
4.7 fold increase over isotype | 94.1 | 0.83 | 97 | 63.9 fold increase over isotype | Antibody 2 (antibody, V domains shown, Purified as IgG; compared with an IgG1 isotype control and detected with anti-human IgG Fc; also called antibody clone number 2; clone 2) VH: EVQLVESGGGLVKPGGSLRLSCAASGFTFSEYTMNWVRQAPGKGLEWVSAIVGSGDSTYYADSVKGRFTISRDNSKNTLYLQMNSLRAEDTAVYYCAKDYSSGDWIDYGMDVWGQGTTVTVSS VL: DIQMTQSPSSLSASVGDRVTITCQASQDISNYLNWYQQKPGKAPKLLIYDASNLATGVPSRFSGSGSGTDFTFTISSLQPEDIATYYCQQFDLLPPTFGGGTKVEIK
3.8 fold increase over isotype | 97 | 0.17 | 97.4 | 63.3 fold increase over isotype | Antibody 5 (antibody, V domains shown, Purified as IgG; compared with an IgG1 isotype control and detected with anti-human IgG Fc; also called antibody clone number 5; clone 5) VH: EVQLLESGGGLVQPGGSLRLSCAASGFTFSDYAMIWVRQAPGKGLEWVSAISGGGESTYYADSVKGRFTISRDNSKNTLYLQMNSLRAEDTAVYYCAKDYSSGDWIDYGMDVWGQGTTVTVSS VL: DIQMTQSPSSLSASVGDRVTITCQASQDISNYLNWYQQKPGKAPKLLIYDASNLATGVPSRFSGSGSGTDFTFTISSLQPEDIATYYCQQFDLLPPTFGGGTKVEIK
